Measured values: patent publication US20060246046A1 (published 2006)
Where a chain is given by its changes, count along the chain named. In names and notes the source's numbering stands.

B1: recombinant wild-type tridegin polypeptide (SEQ ID No. 1) from Escherichia coli (protein, not shown: small tags and cut ends)
chain: MKLLPCKEWHQGIPNPRCWCGADLECAQDQYCAFIPQCRPRSELIKPMDDIYQRPVEFPNLPLKPREE
B2: modified tridegin F34A (protein, not shown: small tags and cut ends)
chain: B1 chain with F34A
B3: modified tridegin N60A (protein, not shown: small tags and cut ends)
chain: B1 chain with N60A
B4: modified tridegin R39A (protein, not shown: small tags and cut ends)
chain: B1 chain with R39A
B5: modified tridegin I45A (protein, not shown: small tags and cut ends)
chain: B1 chain with I45A
B6: modified tridegin D50A, P55L (protein, not shown: small tags and cut ends)
chain: B1 chain with D50A, P55L
B7: modified tridegin D50A (protein, not shown: small tags and cut ends)
chain: B1 chain with D50A
B8: modified tridegin Cys variant C20A (protein, not shown: small tags and cut ends)
chain: B1 chain with C20A
B9: modified tridegin Y31A (protein, not shown: small tags and cut ends)
chain: B1 chain with Y31A
B10: modified tridegin Cys variant C26A (protein, not shown: small tags and cut ends)
chain: B1 chain with C26A
B11: modified tridegin K02A (protein, not shown: small tags and cut ends)
chain: B1 chain with K2A
B12: modified tridegin Cys variant C06A (protein, not shown: small tags and cut ends)
chain: B1 chain with C6A
B13: modified tridegin G12A (protein, not shown: small tags and cut ends)
chain: B1 chain with G12A
B14: modified tridegin K07A (protein, not shown: small tags and cut ends)
chain: B1 chain with K7A
B15: modified tridegin Cys variant C18A (protein, not shown: small tags and cut ends)
chain: B1 chain with C18A
B16: modified tridegin L24A (protein, not shown: small tags and cut ends)
chain: B1 chain with L24A
B17: modified tridegin H10A (protein, not shown: small tags and cut ends)
chain: B1 chain with H10A
B18: modified tridegin P65A (protein, not shown: small tags and cut ends)
chain: B1 chain with P65A
B19: modified tridegin M48A (protein, not shown: small tags and cut ends)
chain: B1 chain with M48A
B20: modified tridegin Cys variant C32A (protein, not shown: small tags and cut ends)
chain: B1 chain with C32A
B21: modified tridegin F58A (protein, not shown: small tags and cut ends)
chain: B1 chain with F58A
B22: modified tridegin Cys variant C26A; +C38A (protein, not shown: small tags and cut ends)
chain: B1 chain with C26A, C38A

These binders were tested against T1, factor XIIIa (human, UniProt P00488 39-732) (assay: cell-based or functional assay).
T1 sequence (looked up): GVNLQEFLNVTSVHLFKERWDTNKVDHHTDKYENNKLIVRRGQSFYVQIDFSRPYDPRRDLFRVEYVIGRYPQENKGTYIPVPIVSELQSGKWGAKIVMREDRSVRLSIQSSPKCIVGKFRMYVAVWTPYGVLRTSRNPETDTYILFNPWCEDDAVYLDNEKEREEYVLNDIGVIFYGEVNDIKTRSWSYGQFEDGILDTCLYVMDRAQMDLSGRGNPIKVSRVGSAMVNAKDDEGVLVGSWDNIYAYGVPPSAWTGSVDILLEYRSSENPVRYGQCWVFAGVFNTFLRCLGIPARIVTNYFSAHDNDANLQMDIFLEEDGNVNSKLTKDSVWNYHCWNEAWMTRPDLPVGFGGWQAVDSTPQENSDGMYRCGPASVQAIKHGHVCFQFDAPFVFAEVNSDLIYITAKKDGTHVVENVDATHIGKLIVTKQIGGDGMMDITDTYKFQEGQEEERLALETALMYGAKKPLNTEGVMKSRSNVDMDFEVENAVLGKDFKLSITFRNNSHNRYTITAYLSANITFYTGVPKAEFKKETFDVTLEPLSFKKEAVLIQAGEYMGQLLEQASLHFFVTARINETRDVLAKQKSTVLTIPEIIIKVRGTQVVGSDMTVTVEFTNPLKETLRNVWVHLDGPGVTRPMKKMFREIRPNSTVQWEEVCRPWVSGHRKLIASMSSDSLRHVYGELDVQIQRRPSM

Binder | IC50, Berichrom assay (factor XIIIa activity) [µM] | Relative inhibitory effect (%) at 5.45 µM, wild type = 100% [%] | Relative inhibitory effect (%) at 7.27 µM (reference) [%]
B1 | 2 to 4 | 100 | 100
B2 |  | 96 | 
B3 |  | 68 | 
B4 |  | 49 | 
B5 |  | 115 | 
B6 |  | 84 | 
B7 |  | 53 | 
B8 |  | 63 | 
B9 |  | 69 | 
B10 |  | 82 | 
B11 |  | 113 | 
B12 |  | 72 | 
B13 |  | 97 | 
B14 |  | 90 | 
B15 |  | 93 | 
B16 |  | 92 | 
B17 |  | 87 | 
B18 |  | 51 | 
B19 |  | 91 | 
B20 |  | 86 | 
B21 |  | 60 | 
B22 |  | 80 | 

Molecular target: T1, factor XIIIa
Assay: cell-based or functional assay
Remark: another data set of the same source

Binder | IC50, Berichrom test, purified peptide [µM]
MDDIYQRPVEFPNLPL [MDDIYQRPVEFPNLPL (SEQ ID No. 87) (16mer)] | 19

Molecular target: T1, factor XIIIa
Assay: cell-based or functional assay
Remark: another data set of the same source

Binder | Relative inhibitory effect (%) at 7.27 µM, recombinant tridegin = 100% [%]
Ac-DLECAQDQYCAFIPQCRPRS-NH2 (cysteine pairing not given here) [20 amino acid-long tridegin peptide SEQ ID NO.13] | 7.96
Ac-AFIPQCRPRSELIKPMDDIY-NH2 [20 amino acid-long tridegin peptide SEQ ID NO.18] | 13.3
Ac-QGIPNPRCWCGADLECAQDQ-NH2 (cysteine pairing not given here) [20 amino acid-long tridegin peptide SEQ ID NO.7] | 13.7
Ac-WCGADLECAQDQYCAFEPQC-NH2 (cysteine pairing not given here) [20 amino acid-long tridegin peptide SEQ ID NO.11] | 0.36
Ac-RCWCGADLECAQDQYCAFIP-NH2 (cysteine pairing not given here) [20 amino acid-long tridegin peptide SEQ ID NO.10] | 5.88
Ac-KEWHQGIPNPRCWCGADLEC-NH2 (cysteine pairing not given here) [20 amino acid-long tridegin peptide SEQ ID NO.5] | 1.96
Ac-LLPCKEWHQGIPNPRCWCGA-NH2 (cysteine pairing not given here) [20 amino acid-long tridegin peptide SEQ ID NO.3] | 5.88
Ac-YCAFEPQCRPRSELIKPMDD-NH2 (cysteine pairing not given here) [20 amino acid-long tridegin peptide SEQ ID NO.17] | 12.3
Ac-PCKEWHQGIPNPRCWCGADL-NH2 (cysteine pairing not given here) [20 amino acid-long tridegin peptide SEQ ID NO.4] | 9.8
Ac-IPQCRPRSELIKPMDDIYQR-NH2 [20 amino acid-long tridegin peptide SEQ ID NO.19] | 0
Ac-ELIKPMDDIYQRPVEFPNLP-NH2 [20 amino acid-long tridegin peptide SEQ ID NO.23] | 24
Ac-RSELIKPMDDIYQRPVEFPN-NH2 [20 amino acid-long tridegin peptide SEQ ID NO.22] | 8.64
Ac-MKLLPCKEWHQGIPNPRCWC-NH2 (cysteine pairing not given here) [20 amino acid-long tridegin peptide SEQ ID NO.2] | 0
Ac-IPNPRCWCGADLECAQDQYC-NH2 (cysteine pairing not given here) [20 amino acid-long tridegin peptide SEQ ID NO.8] | 13.7
Ac-NPRCWCGADLECAQDQYCAF-NH2 (cysteine pairing not given here) [20 amino acid-long tridegin peptide SEQ ID NO.9] | 0
Ac-AQDQYCAFIPQCRPRSELIK-NH2 (cysteine pairing not given here) [20 amino acid-long tridegin peptide SEQ ID NO.15] | 3.32
Ac-DQYCAFIPQCRPRSELIKPM-NH2 (cysteine pairing not given here) [20 amino acid-long tridegin peptide SEQ ID NO.16] | 14.8
Ac-QCRPRSELIKPMDDIYQRPV-NH2 [20 amino acid-long tridegin peptide SEQ ID NO.20] | 11.1
Ac-GADLECAQDQYCAFIPQCRP-NH2 (cysteine pairing not given here) [20 amino acid-long tridegin peptide SEQ ID NO.12] | 2.49
Ac-RPRSELIKPMDDIYQRPVEF-NH2 [20 amino acid-long tridegin peptide SEQ ID NO.21] | 19.4
Ac-WHQGIPNPRCWCGADLECAQ-NH2 (cysteine pairing not given here) [20 amino acid-long tridegin peptide SEQ ID NO.6] | 9.8
Ac-ECAQDQYCAFIPQCRPRSEL-NH2 (cysteine pairing not given here) [20 amino acid-long tridegin peptide SEQ ID NO.14] | 6.3
